Positions count from the first letter of the chain named. One block for each binder: values may come before it.
Experiments:
[1] = biological target: T1, human CD137, cell-surface (human, UniProt Q07011 24-255); test: cell-based or functional assay
hCD137-mFc-Avi [2] = biological target: T2, hCD137-mFc-Avi (human; mouse, UniProt Q07011 24-186, biotin on the Avi sequence where the biotinylated form was used); test: SPR, mAb^2 captured by anti-human Fab, antigen in flow, 1:1 Langmuir fit
T2 construct: also called human CD137-mFc-Avi; dimeric human CD137; not shown: mouse IgG2a Fc domain (mIgG2a Fc)
Experimental: (§1) An anti-human Fab capture antibody was immobilised on all four flow cells of a CM5 series S chip (GE Healthcare #BR-1005-30) to an average surface density of 6000 RU following the manufacturer's recommendations (GE Healthcare, human Fab capture Kit, #28958325). […] Each mAb² was captured to approximately 150 RU by injecting a 3 μg/ml solution of mAb² diluted in HBS-EP+ buffer (GE Healthcare #BR1006-69) for 60 seconds at 30 μl/min. Then different concentrations of human, cyno or mouse CD137 antigen (unbiotinylated human, cyno or mouse CD137-mFc-Avi or human CD137-Avi-His) in HBS-EP+ buffer were flowed over the chip for 3 min at 60 μl/min and then allowed to dissociate for 10 minutes. After each antigen concentration the chip was regenerated by infecting 10 mM glycine pH 2.1 at a flow rate of 30 μl/min for 30 seconds. Buffer HBS-EP+ was injected before the highest concentration of antigen and after the lowest concentration of antigen for reference subtraction, and one of the concentrations at random was repeated twice. The binding kinetics were fit with a 1:1 Langmuir model to generate equilibrium binding constants (KD) for each sample. Data analysis was performed with BiaEvaluation software version 3.2.

cCD137-mFc-Avi [3] = biological target: T3, cCD137-mFc-Avi (cynomolgus; mouse); test: as above
T3 construct: also called cynomolgus CD137-mFc-Avi; Cyno CD137-mFc-Avi; not shown: mouse IgG2a Fc domain (mIgG2a Fc)
T3 chain: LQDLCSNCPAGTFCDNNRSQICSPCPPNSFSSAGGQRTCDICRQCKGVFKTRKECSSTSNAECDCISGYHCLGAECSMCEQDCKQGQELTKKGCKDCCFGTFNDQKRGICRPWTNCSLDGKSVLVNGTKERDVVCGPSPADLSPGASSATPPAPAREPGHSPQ
Experimental: as §1

human CD40 = human CD40 (human, UniProt P25942 21-193, limits assumed); test: SPR, receptor amine-coupled to CM5 (~1000 RU)
Experimental: (§2) The specificity of the anti-human CD137 Fcabs for human CD137 compared to other related TNFSFR family members was tested. 8 of the Fcabs were tested in mock mAb² (HeID1.3) format and measured by SPR in a Biacore T200 (GE Healthcare) by testing for binding to other human TNFRSF receptors: CD40, OX40 and GITR. Amine coupling (amine coupling kit, GE Healthcare, BR-1000-50) was used to coat human CD40, GITR and OX40 to approximately 1000 RU in Biacore CM5 chips (GE Healthcare, cat no 29149603). […] The chip was regenerated by injection of 10 mM glycine pH 2.5 for 12 s at 30 μl/min. Antibodies specific to the different TNFRSF members were used as positive controls to verify Biacore chip coating. Data was double reference subtracted and analysed using BIAevaluation 3.2 software.

human OX40 = biological target: T4, human OX40 (human, UniProt P43489 29-216); test: SPR, receptor amine-coupled to CM5 (~1000 RU)
T4 sequence (looked up): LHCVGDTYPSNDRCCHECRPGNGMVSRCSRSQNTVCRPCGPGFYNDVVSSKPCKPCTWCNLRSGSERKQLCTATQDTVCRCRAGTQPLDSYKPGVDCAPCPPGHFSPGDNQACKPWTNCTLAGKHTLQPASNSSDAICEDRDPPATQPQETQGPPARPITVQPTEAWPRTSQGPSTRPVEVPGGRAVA
Experimental: as §2

human GITR = biological target: T5, human GITR (human, UniProt Q9Y5U5 26-161, limits assumed); test: SPR, receptor amine-coupled to CM5 (~1000 RU)
T5 sequence (looked up): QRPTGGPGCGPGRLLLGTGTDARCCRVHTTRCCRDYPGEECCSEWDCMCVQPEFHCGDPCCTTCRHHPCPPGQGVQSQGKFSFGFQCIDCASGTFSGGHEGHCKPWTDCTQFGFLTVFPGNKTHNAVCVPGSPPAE
Experimental: as §2

[4] = biological target: T1, human CD137, cell-surface; test: cell-based or functional assay; remark: listed apart in the source
[5] = biological target: T6, cynomolgus CD137, cell-surface (cynomolgus, UniProt Q07011 24-255 (human entry)); test: cell-based or functional assay
T6 chain: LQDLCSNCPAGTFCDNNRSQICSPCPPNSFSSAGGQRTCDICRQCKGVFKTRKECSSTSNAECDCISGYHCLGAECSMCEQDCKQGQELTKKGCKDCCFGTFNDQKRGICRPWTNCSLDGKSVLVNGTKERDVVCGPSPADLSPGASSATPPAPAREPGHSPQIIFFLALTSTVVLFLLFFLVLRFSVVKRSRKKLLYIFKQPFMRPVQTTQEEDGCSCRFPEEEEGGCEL

[6] = biological target: T7, biotinylated hPD-L1-Avi-His (Acro Biosystems, PD1-H82E5) (human, UniProt Q9NZQ7 19-238, biotinylated); test: SPR, mAb^2 captured on Protein A chip, antigen in flow
T7 construct: bought; also called Human PD-L1-His; not shown: Avi and His tags of the bought product
Experimental: (§3) Briefly, the anti-human CD137/PD-L1 mAb², diluted in HBS-EP buffer (GE Healthcare, BR100188) at 2 μg/ml, were injected individually on flows cell 2, 3 and 4 of a Protein A chip (GE Healthcare, 29127556) at 30 μl/min to achieve a final response of approximately 110 RU. Two different recombinant human PD-L1 antigens were used i.e. hPD-L1-His-Avi (see Example 1.3 for antigen details) and biotinylated hPD-L1-Avi-His (Acrobiosystems, PD-1-H82E5). Human and cynomolgus PD-L1-His (Acrobiosystems, PD-1-C52H4) antigens, diluted in HBS-EP buffer, were injected on flow cell 1, 2, 3 or 4 as appropriate at a concentration range of 81 nM to 0.037 nM with 3-fold dilutions for 4 min at 75 μl/min and then allowed to dissociate in buffer for 10 min. Regeneration was achieved by injecting 10 mM glycine-HCL pH1.5 (GE Healthcare, Human Antibody Capture Kit, BR00356) for 30 sec at a rate of 30 μl/min. Subtracted data (flow cell 2−flow cell 1, flow cell 3−flow cell 1, or flow cell 4−flow cell 1) were analysed using BIAevaluation 3.2 Software (GE Healthcare) to identify binding using the model 1:1 binding with mass transfer, with refractive index (RI) constant 0.

[7] = biological target: T8, cPD-L1-His (Acro Biosystems, PD1-C52H4) (cynomolgus, UniProt Q9NZQ7 19-238 (human entry)); test: as above
T8 construct: bought; also called Cyno PD-L1-His; Cynomolgus PD-L1-His; not shown: His tag of the bought product
Experimental: as §3

hCD137-mFc-Avi [8] = biological target: T2, hCD137-mFc-Avi; test: SPR, mAb^2 captured by anti-human Fab, antigen in flow
Experimental: (§4) The binding of the anti-human CD137/PD-L1 mAb² to recombinant dimeric human and cynomolgus CD137 antigens was also measured by SPR using a Biacore T200 processing unit (GE Healthcare).
(§5) Briefly, 20 μg/ml anti-human Fab antibody (GE Healthcare, Human Fab Capture kit 28958325) was coated on flow cells 1, 2, 3 and 4 of a Biacore sensor S chip CM5 (GE Healthcare, BR100530) achieving a final response of approximately 5000 RU. […] The recombinant dimeric antigens, human CD137-mFc-Avi or cynomolgus CD137-mFc-Avi (see Example 1.1 for antigen details) diluted in HBS-EP buffer, were injected on flow cell 1, 2, 3 or 4 as appropriate at a concentration range of 81 nM to 0.037 nM with 3-fold dilutions for 4 minutes at 70 μl/min and then allowed to dissociate in buffer for 10 minutes. Regeneration was achieved by injecting 10 mM glycine pH 2.1 (GE Healthcare, Human Fab Capture kit 28958325) for 60 seconds at a rate of 30 μl/min. Data analysis was performed as described in Example 9.1.

cCD137-mFc-Avi [9] = biological target: T3, cCD137-mFc-Avi; test: as above
Experimental: as §4, §5

T2 sequence (Q07011 24-186): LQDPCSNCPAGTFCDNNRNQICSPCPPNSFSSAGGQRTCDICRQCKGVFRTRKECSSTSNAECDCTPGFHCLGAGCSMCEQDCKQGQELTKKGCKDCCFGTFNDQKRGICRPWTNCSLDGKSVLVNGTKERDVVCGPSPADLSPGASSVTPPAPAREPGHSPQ
T7 sequence (Q9NZQ7 19-238): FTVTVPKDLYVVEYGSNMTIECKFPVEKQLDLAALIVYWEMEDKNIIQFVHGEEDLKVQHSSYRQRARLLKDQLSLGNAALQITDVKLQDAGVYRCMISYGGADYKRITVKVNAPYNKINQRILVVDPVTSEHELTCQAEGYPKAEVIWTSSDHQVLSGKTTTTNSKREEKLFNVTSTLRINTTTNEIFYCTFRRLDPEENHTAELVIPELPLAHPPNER
Chain of human CD40 (P25942 21-193 limits assumed): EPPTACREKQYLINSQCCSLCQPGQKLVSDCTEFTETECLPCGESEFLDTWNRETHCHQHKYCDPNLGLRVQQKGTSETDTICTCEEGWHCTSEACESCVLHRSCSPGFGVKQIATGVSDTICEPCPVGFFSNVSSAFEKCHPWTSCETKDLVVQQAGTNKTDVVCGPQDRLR
T8 sequence (Q9NZQ7 other isoform, or with tags, fused parts or gaps): as the sequence (Q9NZQ7 19-238) above, with A33T, A34S, S62N, R68Q, Q82R, F173L, T185A, T192I, H215L counted along it

luciferase signal, NF-κB reporter assay (HEK.FRT.luc.hCD137), fold increase on Protein L crosslinking [1]: ≥ 10 fold
Kd (hCD137-mFc-Avi [2]): 38000 pM
Kd (cCD137-mFc-Avi [3]): 34000 pM
B1: FS22-053 in HeID1.3 mock mAb^2 format (bispecific antibody, human IgG1, kappa)
heavy: QVQLQESGPGLVRPSQTLSLTCTVSGSTFSGYGVNWVRQPPGRGLEWIGMIWGDGNTDYNSALKSRVTMLVDTSKNQFSLRLSSVTAADTAVYYCARERDYRLDYWGQGSLVTVSSASTKGPSVFPLAPSSKSTSGGTAALGCLVKDYFPEPVTVSWNSGALTSGVHTFPAVLQSSGLYSLSSVVTVPSSSLGTQTYICNVNHKPSNTKVDKKVEPKSCDKTHTCPPCPAPELLGGPSVFLFPPKPKDTLMISRTPEVTCVVVDVSHEDPEVKFNWYVDGVEVHNAKTKPREEQYNSTYRVVSVLTVLHQDWLNGKEYKCKVSNKALPAPIEKTISKAKGQPREPQVYTLPPSRDELNPPYLFSNQVSLTCLVKGFYPSDIAVEWESNGQPENNYKTTPPVLDSDGSFFLYSKLTVYYNRWQDGNVFSCSVMHEALHNHYTQKSLSLSPG
light: DIQMTQSPASLSASVGETVTITCRASGNIHNYLAWYQQKQGKSPQLLVYNAKTLADGVPSRFSGSGSGTQYSLKINSLQPEDFGSYYCQHFWSTPRTFGGGTKLEIKRTVAAPSVFIFPPSDEQLKSGTASVVCLLNNFYPREAKVQWKVDNALQSGNSQESVTEQDSKDSTYSLSSTLTLSKADYEKHKVYACEVTHQGLSSPVTKSFNRGEC
notes: mock mAb^2: CD137 site in the CH3, Fab against hen egg lysozyme

luciferase signal, NF-κB reporter assay (HEK.FRT.luc.hCD137), fold increase on Protein L crosslinking [1]: ≥ 10 fold
Kd (hCD137-mFc-Avi [2]): 52000 pM
Kd (cCD137-mFc-Avi [3]): 203000 pM
B2: FS22-172 in HeID1.3 mock mAb^2 format (bispecific antibody, human IgG1, kappa)
heavy: QVQLQESGPGLVRPSQTLSLTCTVSGSTFSGYGVNWVRQPPGRGLEWIGMIWGDGNTDYNSALKSRVTMLVDTSKNQFSLRLSSVTAADTAVYYCARERDYRLDYWGQGSLVTVSSASTKGPSVFPLAPSSKSTSGGTAALGCLVKDYFPEPVTVSWNSGALTSGVHTFPAVLQSSGLYSLSSVVTVPSSSLGTQTYICNVNHKPSNTKVDKKVEPKSCDKTHTCPPCPAPELLGGPSVFLFPPKPKDTLMISRTPEVTCVVVDVSHEDPEVKFNWYVDGVEVHNAKTKPREEQYNSTYRVVSVLTVLHQDWLNGKEYKCKVSNKALPAPIEKTISKAKGQPREPQVYTLPPSRDELRKYYPPYNQVSLTCLVKGFYPSDIAVEWESNGQPENNYKTTPPVLDSDGSFFLYSKLTVGADRWLEGNVFSCSVMHEALHNHYTQKSLSLSPG
light: B1 light
notes: mock mAb^2

binding result (human CD40): no binding (tested: 1 µM)
binding result (human OX40): no binding (tested: 1 µM)
binding result (human GITR): no binding (tested: 1 µM)
B3: FS22-053-012/HeID1.3 (bispecific antibody, human IgG1, kappa)
heavy: B1 heavy with Y417D, Y418H, N419M, Q422L, D423E
light: B1 light
notes: mock mAb^2; also called FS22-053-012 (mock mAb^2 format)

EC50 (nM), hIL-2 release, CD8+ T cells, donor 171115A, HEK.hPD-L1 XL [4]: 0.21 nM
EC50 (nM), hIL-2 release, CD8+ T cells, donor 171115A, MDA-MB-231 XL [4]: 0.02 nM
EC50 (nM), hIL-2 release, CD8+ T cells, donor 171115B, HEK.hPD-L1 XL [4]: 0.22 nM
EC50 (nM), hIL-2 release, CD8+ T cells, donor 171115B, MDA-MB-231 XL [4]: 0.01 nM
EC50 (nM) (crosslinked), mIL-2 release, DO11.10.cCD137 with HEK.cyPD-L1 [5]: 0.06 nM
Emax (pg/ml) (crosslinked), mIL-2 release, DO11.10.cCD137 with HEK.cyPD-L1 [5]: 11200 pg/mL
Kd [6]: 490 pM
Kd [7]: 530 pM
Kd (hCD137-mFc-Avi [8]): 2200 pM
Kd (cCD137-mFc-Avi [9]): 1800 pM
B4: FS22-172-003-AA/G12v2 (bispecific antibody, human IgG1, kappa, L234A L235A)
heavy: EVQLVQSGAEVKRPGASVKVSCKASGYTFTSYGISWVRQAPGQGLEWMGWISAYSGGTNYAQKLQGRVTMTTDTSTSTAYMELRSLRSDDTAVYYCARDLFPTIFGVSYYYYWGQGTLVTVSSASTKGPSVFPLAPSSKSTSGGTAALGCLVKDYFPEPVTVSWNSGALTSGVHTFPAVLQSSGLYSLSSVVTVPSSSLGTQTYICNVNHKPSNTKVDKKVEPKSCDKTHTCPPCPAPEAAGGPSVFLFPPKPKDTLMISRTPEVTCVVVDVSHEDPEVKFNWYVDGVEVHNAKTKPREEQYNSTYRVVSVLTVLHQDWLNGKEYKCKVSNKALPAPIEKTISKAKGQPREPQVYTLPPSRDELPYIIPPYNQVSLTCLVKGFYPSDIAVEWESNGQPENNYKTTPPVLDSDGSFFLYSKLTVGADRWLEGNVFSCSVMHEALHNHYTQKSLSLSPG
light: DIQMTQSPSTLSASVGDRVTITCRASQSISGRLAWYQQKPGKAPNLLIYEASNLESGVPSRFSGSGSGTEFTLTISSLQPEDFATYYCQQSYSWPRTFGQGTKVEIKRTVAAPSVFIFPPSDEQLKSGTASVVCLLNNFYPREAKVQWKVDNALQSGNSQESVTEQDSKDSTYSLSSTLTLSKADYEKHKVYACEVTHQGLSSPVTKSFNRGEC

Source: patent US20250346679A1 (INVOX PHARMA, published 2025)
